Results on one molecule are retold here after publication PMC5829230, “G-protein βγ subunits determine grain size through interaction with MADS-domain transcription factors in rice”.

For the series, the target named is GST-OsMADS1 (Oryza sativa, UniProt Q10PZ9 1-257). Put plainly: EMSA; 10x and 50x unlabeled probe as competitor; LightShift Chemiluminescent EMSA Kit (Thermo 20148); buffer, salt, pH and temperature not stated. The note with it: protein: recombinant; tags: N-terminal GST (pGEX-4T-1); chain copies: 2; label: biotin; blunt.
GST-OsMADS1, sequence (Q10PZ9 whole entry): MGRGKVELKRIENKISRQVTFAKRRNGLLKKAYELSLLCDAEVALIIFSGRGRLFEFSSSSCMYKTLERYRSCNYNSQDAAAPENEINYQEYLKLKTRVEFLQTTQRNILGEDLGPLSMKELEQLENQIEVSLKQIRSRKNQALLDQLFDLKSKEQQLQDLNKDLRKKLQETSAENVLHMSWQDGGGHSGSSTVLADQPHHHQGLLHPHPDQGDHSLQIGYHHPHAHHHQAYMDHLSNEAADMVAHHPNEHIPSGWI

B1: MADS55-EMSA-probe (dsDNA)
DNA 1: AGGCAGTATCTATCTATTTATTGCGTATAAACTAAAT
DNA 2: ATTTAGTTTATACGCAATAAATAGATAGATACTGCCT
For the molecule B1, the binding result is “binds”.
